The source of these data is patent US20250376535A1 (BEIJING STARMAB BIOMED TECHNOLOGY, published 2025).

A word on the Kd: it is the concentration at which binding is half-saturated. By koff is commonly meant the first-order rate constant of dissociation. One may read the kon as the rate constant with which the complex forms.

Experiment [1] has as its target T1, 4-1BB Fc (human, UniProt Q07011 24-183).
T1 construct: also called rh-41BB; 41BB-hFc
Briefly: ELISA, 4-1BB Fc coated, VHH at 5 nM. On the technique in general: An ELISA detects its analyte on a solid surface through an enzyme-linked reagent.
Description: (§1) After four rounds of washing with PBST, the plate was incubated with detecting antibody anti-his-HRP (1:4000 dilution) 100 μl per well for one hour with shaking at 60 rpm. The plate was developed with 100 μL of TMB per well in the dark and then stopped by 50 μL of stop solution per well. […] Data was analyzed using GraphPad Prisma 9.1.

For experiment [2], the target named is T1, 4-1BB Fc. As to the kind of experiment: ELISA, 4-1BB Fc coated, VHH at 0.5 nM.
Description: as §1
The target of experiment [3] is T1, 4-1BB Fc. Briefly: ELISA, 4-1BB Fc coated, VHH at 0.005 nM.
Description: as §1
For experiment [4], the target named is T1, 4-1BB Fc. As to the kind of experiment: ELISA, 4-1BB Fc coated, VHH at 50 nM.
Description: as §1
Experiment [5] has as its target T1, 4-1BB Fc. As to the kind of experiment: ELISA, 4-1BB Fc coated, VHH at 0.00005 nM.
Description: as §1
The target in experiment [6] is T1, 4-1BB Fc. As to the kind of experiment: ELISA, 4-1BB Fc coated, VHH at 0.05 nM.
Description: as §1
The target of experiment [7] is T1, 4-1BB Fc. Briefly: ELISA, 4-1BB Fc coated, VHH at 0.0005 nM.
Description: as §1
Experiment [8] deals with T1, 4-1BB Fc. As to the kind of experiment: ELISA, 4-1BB Fc coated, VHH at 500 nM.
Description: as §1
The target in the next experiment is T2, Human 41BB antigen (BLI) (human, UniProt Q07011 24-183).
T2 construct: also called 41BB protein
T2 sequence (Q07011 24-183 limits assumed): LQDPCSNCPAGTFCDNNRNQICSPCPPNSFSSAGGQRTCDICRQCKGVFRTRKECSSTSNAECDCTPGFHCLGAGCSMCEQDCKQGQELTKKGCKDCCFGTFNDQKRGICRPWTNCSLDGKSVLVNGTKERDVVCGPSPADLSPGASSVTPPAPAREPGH
Briefly: BLI, VHH-His on anti-His tips, human 41BB in solution.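 Note: association tracked for 200 s, after which dissociation was followed in 1×PBS free of 41BB protein.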

For another experiment, the target named is T3, human serum albumin (human, UniProt P02768 25-609).
T3 construct: also called HSA
As to the kind of experiment: BLI (Gator), His-tagged VHH on anti-His sensor, HSA 100 nM in solution.

The target in another experiment is T4, murine serum albumin (murine, UniProt P07724 25-608).
T4 construct: As antigen 'MSA' means murine serum albumin; the VHHs also carry the label MSA; also called MSA
Briefly: BLI (Gator), His-tagged VHH on anti-His sensor, murine serum albumin 100 nM in solution.

Experiment [9] deals with T5, recombinant human CD40-Fc (human, UniProt P25942 21-193).
T5 construct: also called rh-CD40-Fc; CD40-hFc
T5 sequence (P25942 21-193): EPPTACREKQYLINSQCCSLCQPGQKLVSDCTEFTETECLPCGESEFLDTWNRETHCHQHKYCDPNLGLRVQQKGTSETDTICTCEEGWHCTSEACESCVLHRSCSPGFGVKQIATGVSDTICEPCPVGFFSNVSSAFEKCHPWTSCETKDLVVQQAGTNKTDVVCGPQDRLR
As to the kind of experiment: ELISA, CD40-Fc coated, VHH at 1000 nM.
Description: (§2) After four times washing with PBST, the plate was incubated with detecting antibody anti-his-HRP (1:4000 dilution) 100 μl per well for one hour with shaking at 60 rpm. The plate was developed with 100 μL of TMB per well in the dark and then stopped by 50 μL of stop solution per well.

Experiment [10] has as its target T5, recombinant human CD40-Fc. As to the kind of experiment: ELISA, CD40-Fc coated, VHH at 0.013 nM.
Description: as §2
The target of experiment [11] is T5, recombinant human CD40-Fc. As to the kind of experiment: ELISA, CD40-Fc coated, VHH at 1.6 nM.
Description: as §2
In experiment [12] the target is T5, recombinant human CD40-Fc. As to the kind of experiment: ELISA, CD40-Fc coated, VHH at 0.064 nM.
Description: as §2
The target in experiment [13] is T6, Human CD40 antigen (recombinant, BLI) (human, UniProt P25942 21-193).
T6 construct: also called rh-CD40
T6 sequence (P25942 21-193 limits assumed): as the sequence (P25942 21-193) above
Briefly: BLI, VHH-His on anti-His tips, human CD40 in solution.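 Note: kinetics measured at 30 °C in PBS pH 7.2, association tracked for 200 s, then dissociation followed in PBS lacking CD40.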
Description: Bio-Layer Interferometry (BLI) kinetic binding analysis. […] Affinity measurements were performed with Gator equipped with Anti-Penta-His capture (HIS1K) biosensor tips. The assay was performed at 30° C. in 1×PBS buffer (Gibco®, PBS pH7.2). Samples were agitated at 1000 rpm. Prior to analysis, sensors were humidified for 15 min. […] Sensor data was collected throughout the experiments, processed, and analyzed using the Gator data analysis software.
Briefly, purified anti-CD40 VHH was tested for its binding capacity with HIS1K sensor tips. Tips were loaded using 20 μg/ml of anti-CD40 VHH. Loading proceeded for 300 sec resulting in capture levels of between 1.8 and 2 nm. […] Association was initiated and monitored for 200 sec, after which tips were transferred to 1×PBS buffer without CD40 protein in order to monitor dissociation.

In experiment [14] the target is T5, recombinant human CD40-Fc. Briefly: ELISA, CD40-Fc coated, VHH at 40 nM.
Description: as §2
Experiment [15] concerns the target T5, recombinant human CD40-Fc. Briefly: ELISA, CD40-Fc coated, VHH at 0.0026 nM.
Description: as §2
The target in experiment [16] is T5, recombinant human CD40-Fc. As to the kind of experiment: ELISA, CD40-Fc coated, VHH at 0.32 nM.
Description: as §2
The target of experiment [17] is T5, recombinant human CD40-Fc. Briefly: ELISA, CD40-Fc coated, VHH at 8 nM.
Description: as §2
Experiment [18] has as its target T5, recombinant human CD40-Fc. As to the kind of experiment: ELISA, CD40-Fc coated, VHH at 200 nM.
Description: as §2

T1 sequence (Q07011 24-183): as the sequence (Q07011 24-183 limits assumed) above
Description for Human 41BB antigen (BLI): Tips were loaded using 20 μg/ml of anti-41BB VHH. Loading proceeded for 300 sec resulting in capture levels of between 1.8 and 2 nm. […] Association was initiated and monitored for 200 sec, after which tips were transferred to 1×PBS buffer without 41BB protein, in order to monitor dissociation.
Description for human serum albumin: (§3) Kinetic binding analysis of MSA VHHs were performed with Gator Prime system equipped with analyze software. […] The experiments were done at 30° C. Prior to analysis, sensors were socked in Q buffer for 600 sec with shaking at 1000 rpm, and then 2 μM of HIS tagged MSA VHHs were loaded to Anti-His sensors with shaking at 400 rpm for 120 sec. Loaded sensors were transferred into Q buffer for 60 sec. Association of HSA or MSA at 100 nM was initiated and monitored for 120-180 sec with shaking at 1000 rpm, and finally dissociation in Q buffer for 120-180 sec with 1000 rpm shaking. Software V2.0 (Gator Bio) was used for data analysis. The on-rate (Kₒₙ) and off-rate (Kd) were determined by fitting of the association and dissociation phases of each sample. The mathematical model used assumes a 1:1 stoichiometry, fitting only one analyte in solution binding to one binding site on the surface. The equilibrium dissociation constant (KD), a measure for affinity, was then calculated as the ratio of Kd and Kₒₙ.
Description for murine serum albumin: as §3

B1: 4-1BB-39 (VHH, not shown: small tags and cut ends)
VHH: QVQLGSLGGGSAQPGGSLRLSCTGSGNVYDFVVMGWYRQFPGRQRELVANITGRASPNYVDSVKGRFTISRDNAQNTVHLQMNNLKVEDSAIYYCYAAQQLTTIAGVMTLDYWGSGTQVTVSS
As for B1, the OD450 with 4-1BB Fc [1] worked out at 0.07; with 4-1BB Fc [2], 0.059; with 4-1BB Fc [3], 0.064; with 4-1BB Fc [4], 0.065; with 4-1BB Fc [5] it was 0.063; with 4-1BB Fc [6], 0.068. In addition, the OD450 was determined as 0.072 in the experiment with 4-1BB Fc [7] and 0.098 with 4-1BB Fc [8].

B2: 4-1BB-1 (VHH, not shown: small tags and cut ends)
VHH: QVQLVESGGGLVQAGGSLRLSCAASENIFSFNAMAWYRQAPGKQRELVALITGDGTTKYADSVKGRFTIARLNAKNTVNLEMNSLKPEDTAVYTCAALRNSDRTSWGQGTQVTVSS
For B2, the OD450 with 4-1BB Fc [1] is 0.108; with 4-1BB Fc [2] it was 0.106; with 4-1BB Fc [3], 0.064; with 4-1BB Fc [4], 0.308; in the experiment with 4-1BB Fc [5] it was 0.067; with 4-1BB Fc [6] it was 0.061. The OD450 was 0.065 with 4-1BB Fc [7] and 0.547 in the experiment with 4-1BB Fc [8]. Moreover, the Kd with Human 41BB antigen (BLI) came to 3.17 nM. Further, in the experiment with Human 41BB antigen (BLI), the koff stood at 0.00264 s⁻¹. The molecule also displayed a kon with Human 41BB antigen (BLI) of 834000 M⁻¹ s⁻¹.

B3: MSA1 (VHH)
VHH: EVQLVESGGGLAQAGGSLRLSCADSGHSFSLYAMAWFRQTPEKEREFVAAISSSGGDTYYADSVKGRFTISRENAKNTAYLQMDSLKPGDTAVYFCAGNYYTSQLMRGMYEHWGQGTQVTVSS
notes: Llama single domain antibody with C-terminal His-tag, made in HEK293; not shown: C-terminal His-tag
B3 registered a koff with human serum albumin of 0.0217 s⁻¹. In the experiment with murine serum albumin, this molecule gave a Kd of 6.64 nM, a koff of 0.00117 s⁻¹ and a kon of 176000 M⁻¹ s⁻¹.

B4: 4-1BB-2 (VHH, not shown: small tags and cut ends)
VHH: QVQLVESGGGLVQAGGSLRLSCAASGSIFSYNAMAWYRQAPGKQRELVALITSDRTTKYADSVKGRFTISRDDTKNTVDLEMNSLKPEDTAVYTCAALLNSARTSWGQGTQVTVSS
For B4, the OD450 in the experiment with 4-1BB Fc [1] stood at 0.07; with 4-1BB Fc [2] it was 0.059; in the experiment with 4-1BB Fc [3] it was 0.063; with 4-1BB Fc [4] it was 0.129; with 4-1BB Fc [5], 0.065; with 4-1BB Fc [6], 0.067. Besides, the OD450 with 4-1BB Fc [7] is 0.058; with 4-1BB Fc [8], 0.112. In the experiment with Human 41BB antigen (BLI), this molecule came in with a Kd of 2.57 nM. The koff with Human 41BB antigen (BLI) came to 0.00252 s⁻¹. The molecule further displayed a kon in the experiment with Human 41BB antigen (BLI) of 979000 M⁻¹ s⁻¹.

B5: MSA B1 (VHH)
VHH: EVQLVESGGGLVQPGGSLHLSCAASRLTTGVTFSDYGMAWFRQAPGAERELLANINWSGQYTNYRDSVKGRAAIFRDNAKNTLYLNINSLKAEDTAVYYCAASSRKYGPGIKSQYEWWGQGTQVTVSS
notes: as for B3
For the molecule B5, in the experiment with human serum albumin, the affinity, expressed as Kd, was 11.3 nM; the koff was found to be 0.00511 s⁻¹; the kon came to 454000 M⁻¹ s⁻¹. Further, in the experiment with murine serum albumin, the Kd came out at 5.32 nM, the koff was 0.000605 s⁻¹ and the kon was determined as 114000 M⁻¹ s⁻¹.

B6: pgDD40-SZ-12 (VHH, not shown: small tags and cut ends)
VHH: EVQLVESGGGLVQPGGSLKLSCAASGFAFSRYTMSWVRQAPGKGLEWVSGIDSGGGRTSYINSVKGRFTISRDNAKNTLYLQMNSLKPEDTAVYHCAQGGDSGSYYRTSWGQGTQVTVSS
Consider B6, for which the OD450 stood at 1.54 in experiment [9]; 0.058 in experiment [10]; 0.061 in experiment [11]; 0.065 in [12]; 0.256 in experiment [14]; 0.06 in experiment [15]. The figures for the OD450 in [16], in experiment [17] and in [18] were 0.059, 0.09 and 0.895, respectively. For the same molecule, the Kd in experiment [13] stood at 1.43 nM. Moreover, the koff in experiment [13] was found to be 0.000806 s⁻¹. For the same molecule, in [13], the kon stood at 564000 M⁻¹ s⁻¹.
